In publication doi:10.1101/067827 (bioRxiv, 2016):

Target: the molecule itself
Assay: SEC

B1: MCAK-His6 (purified full-length MCAK) (enzyme, UniProt Q99661 1-725, looked up)
chain: MAMDSSLQARLFPGLAIKIQRSNGLIHSANVRTVNLEKSCVSVEWAEGGATKGKEIDFDDVAAINPELLQLLPLHPKDNLPLQENVTIQKQKRRSVNSKIPAPKESLRSRSTRMSTVSELRITAQENDMEVELPAAANSRKQFSVPPAPTRPSCPAVAEIPLRMVSEEMEEQVHSIRGSSSANPVNSVRRKSCLVKEVEKMKNKREEKKAQNSEMRMKRAQEYDSSFPNWEFARMIKEFRATLECHPLTMTDPIEEHRICVCVRKRPLNKQELAKKEIDVISIPSKCLLLVHEPKLKVDLTKYLENQAFCFDFAFDETASNEVVYRFTARPLVQTIFEGGKATCFAYGQTGSGKTHTMGGDLSGKAQNASKGIYAMASRDVFLLKNQPCYRKLGLEVYVTFFEIYNGKLFDLLNKKAKLRVLEDGKQQVQVVGLQEHLVNSADDVIKMIDMGSACRTSGQTFANSNSSRSHACFQIILRAKGRMHGKFSLVDLAGNERGADTSSADRQTRMEGAEINKSLLALKECIRALGQNKAHTPFRESKLTQVLRDSFIGENSRTCMIATISPGISSCEYTLNTLRYADRVKELSPHSGPSGEQLIQMETEEMEACSNGALIPGNLSKEEEELSSQMSSFNEAMTQIRELEEKAMEELKEIIQQGPDWLELSEMTEQPDYDLETFVNKAESALAQQAKHFSALRDVIKALRLAMQLEEQASRQISSKKRPQ
stoichiometry N: 2
